Source: patent US12084522B2, “Peptides, combination of peptides, and cell based medicaments for use in immunotherapy against urinary bladder cancer and other cancers” (Immatics Biotechnologies GmbH, priority 2016, dated 2024)

target: HLA-A*02:01 (Homo sapiens, UniProt P04439, D140Y/D185E/D98H/E176V/E277Q/G131W/G231S/I119V/I121R/I166T/I218V/L300P/L318F/N151K/N90K/P208A/P217A/Q86G/Q94H/R138H/R169H/T345S); experiment: MHC binding assay (UV-ligand exchange, β2m ELISA, peptide exchange yield); details: binding to HLA-A*02:01 ranged by peptide exchange yield (UV-ligand exchange, β2m ELISA)
Excerpt: Candidate peptides for T cell based therapies according to the present invention were further tested for their MHC binding capacity (affinity). The individual peptide-MHC complexes were produced by UV-ligand exchange, where a UV-sensitive peptide is cleaved upon UV-irradiation, and exchanged with the peptide of interest as analyzed. Only peptide candidates that can effectively bind and stabilize the peptide-receptive MHC molecules prevent dissociation of the MHC complexes. To determine the yield of the exchange reaction, an ELISA was performed based on the detection of the light chain (β2 m) of stabilized MHC complexes. The assay was performed as generally described in Rodenko et al. (Rodenko et al., 2006).
96 well MAXISorp plates (NUNC) were coated over night with 2 μg/ml streptavidin in PBS at room temperature, washed 4× and blocked forth at 37° C. in 2% BSA containing blocking buffer. Refolded HLA-A*02:01/MLA-001 monomers served as standards, covering the range of 15-500 ng/ml. Peptide-MHC monomers of the UV-exchange reaction were diluted 100 fold in blocking buffer. Samples were incubated for 1 h at 37° C., washed four times, incubated with 2 ug/ml HRP conjugated anti-β2 m for 1 h at 37° C., washed again and detected with TMB solution that is stopped with […]. Absorption was measured at 450 nm. Candidate peptides that show a high exchange yield (preferably higher than 50%, most preferred higher than 75%) are generally preferred for a generation and production of antibodies or fragments thereof, and/or T cell receptors or fragments thereof, as they show sufficient avidity to the MHC molecules and prevent dissociation of the MHC complexes.

Row | Peptide exchange | Substance
1 | +++ (>50 = +++) | 100 (SLQSFIHGV; listed as Homo sapiens) [compound 100]
2 | +++ (>50 = +++) | 101 (ILDEMRAQL; listed as Homo sapiens) [compound 101]
3 | +++ (>50 = +++) | 102 (GLYEGLDWL; listed as Homo sapiens) [compound 102]
4 | ++++ (>75% = ++++) | 103 (GLYSGEVLV; listed as Homo sapiens) [compound 103]
5 | +++ (>50 = +++) | 105 (TLFPSKIGV; listed as Homo sapiens) [compound 105]
6 | +++ (>50 = +++) | 106 (ILLDTPLFL; listed as Homo sapiens) [compound 106]
7 | ++ (>20% = ++) | 107 (LTLAKLEKV; listed as Homo sapiens) [compound 107]
8 | +++ (>50 = +++) | 108 (YLDPNQRDL; listed as Homo sapiens) [compound 108]
9 | +++ (>50 = +++) | 109 (RLIDDMVAQA; listed as Homo sapiens) [compound 109]
10 | +++ (>50 = +++) | 110 (VLFNIDGQGNHV; listed as Homo sapiens) [compound 110]
11 | +++ (>50 = +++) | 112 (YLDPSLNSL; listed as Homo sapiens) [compound 112]
12 | ++++ (>75% = ++++) | 113 (FVFEPPPGV; listed as Homo sapiens) [compound 113]
13 | +++ (>50 = +++) | 115 (SLLDFERSL; listed as Homo sapiens) [compound 115]
14 | +++ (>50 = +++) | 116 (QLAWFDTDL; listed as Homo sapiens) [compound 116]
15 | +++ (>50 = +++) | 117 (YMLDIFHEVL; listed as Homo sapiens) [compound 117]
16 | +++ (>50 = +++) | 118 (RLLDFPTLLV; listed as Homo sapiens) [compound 118]
17 | +++ (>50 = +++) | 119 (SLDEKQNLV; listed as Homo sapiens) [compound 119]

Row | Peptide exchange | Substance
18 | +++ (>50 = +++) | 120 (IIIPEIQKV; listed as Homo sapiens) [compound 120]
19 | +++ (>50 = +++) | 121 (QLQGYLRSV; listed as Homo sapiens) [compound 121]
20 | ++++ (>75% = ++++) | 122 (ILEPSLYTV; listed as Homo sapiens) [compound 122]
21 | ++++ (>75% = ++++) | 123 (NLAGVYSEV; listed as Homo sapiens) [compound 123]
22 | +++ (>50 = +++) | 124 (QIDGTLSTI; listed as Homo sapiens) [compound 124]
23 | +++ (>50 = +++) | 127 (KLNATNIEL; listed as Homo sapiens) [compound 127]
24 | ++++ (>75% = ++++) | 128 (KLWGQSIQL; listed as Homo sapiens) [compound 128]
25 | +++ (>50 = +++) | 129 (YLEPKLTQV; listed as Homo sapiens) [compound 129]
26 | ++++ (>75% = ++++) | 130 (TLTSKLYSL; listed as Homo sapiens) [compound 130]
27 | ++++ (>75% = ++++) | 131 (ILTSIQSLL; listed as Homo sapiens) [compound 131]
28 | ++++ (>75% = ++++) | 132 (YILEGEPGKV; listed as Homo sapiens) [compound 132]
29 | ++++ (>75% = ++++) | 133 (GLDPLGYEIQL; listed as Homo sapiens) [compound 133]
30 | +++ (>50 = +++) | 134 (IVAPGTFEV; listed as Homo sapiens) [compound 134]
31 | +++ (>50 = +++) | 135 (FLLPLIIVL; listed as Homo sapiens) [compound 135]
32 | +++ (>50 = +++) | 136 (GLSEPIFQL; listed as Homo sapiens) [compound 136]
33 | ++++ (>75% = ++++) | 137 (ALFPHLLQPVL; listed as Homo sapiens) [compound 137]
